Experimental data reported in article PMC12365614, “Bipartite chromatin recognition by Hop1 from two diverged Holozoa”.

Key:
[1] = test system: S. mansoni Hop1 CBR WT (Schistosoma mansoni); experiment: fluorescence polarization; settings: FP: 20 mM Tris-HCl pH 8, 100 mM Na glutamate, 5 mM MgCl2, 3% glycerol, 0.5 mM BME, 50 nM DNA, 4 C 30 min; EMSA: 20 mM Hepes pH 7, 100 mM NaCl, 100 uM ZnCl2, 10%
[2] = target: T1, P. miniata Hop1 CBR R477A (Patiria miniata, UniProt A0A913ZKG6 352-499, R477A); experiment: fluorescence polarization; FP: 20 mM Tris-HCl pH 8, 100 mM Na glutamate, 5 mM MgCl2, 3% glycerol, 0.5 mM BME, 50 nM DNA, 4 C 30 min; EMSA: 20 mM Hepes pH 7, 100 mM NaCl, 100 uM ZnCl2, 10% glycerol, 2 mM BME, 4 C 60 min; settings: protein: recombinant; tags: N-terminal His6-GST (uncleaved); label: 5' 6-FAM on strand 1; blunt
T1 sequence: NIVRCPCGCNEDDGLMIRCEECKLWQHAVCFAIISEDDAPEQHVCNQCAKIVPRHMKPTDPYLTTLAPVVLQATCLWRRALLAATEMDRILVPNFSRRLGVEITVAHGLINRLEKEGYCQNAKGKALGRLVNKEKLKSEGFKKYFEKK

[3] = target: T2, P. miniata Hop1 CBR R463A (Patiria miniata, UniProt A0A913ZKG6 352-499, R463A); experiment: as above; settings: protein: recombinant; tags: N-terminal His6-GST (uncleaved); label: 5' 6-FAM on strand 1; blunt
T2 sequence: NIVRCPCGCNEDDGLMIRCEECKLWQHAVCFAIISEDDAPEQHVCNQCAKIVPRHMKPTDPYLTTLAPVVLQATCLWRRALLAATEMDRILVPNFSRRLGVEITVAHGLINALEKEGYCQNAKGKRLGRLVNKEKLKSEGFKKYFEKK

[4] = target: T3, P. miniata Hop1 CBR WT (GST) (Patiria miniata, UniProt A0A913ZKG6 352-499); experiment: as above; settings: protein: recombinant; tags: N-terminal His6-GST (uncleaved); label: 5' 6-FAM on strand 1; blunt
T3 sequence: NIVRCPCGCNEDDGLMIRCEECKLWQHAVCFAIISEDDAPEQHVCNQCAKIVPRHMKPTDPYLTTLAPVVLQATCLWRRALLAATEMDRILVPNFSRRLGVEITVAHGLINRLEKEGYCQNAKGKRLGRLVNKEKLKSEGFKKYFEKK

Q: Which Kd [1] does the source give for “CTTATATCTGAATAGTCAGT (double strand) [20-bp FAM duplex]” here?
A: The Kd was 16 µM.

B1: 20-bp FAM duplex (dsDNA)
DNA 1: CTTATATCTGAATAGTCAGT
DNA 2: ACTGACTATTCAGATATAAG
Q: Does B1 bind [2]?
A: Result: no binding

Q: Does B1 bind [3]?
A: Result: no binding

Q: What about the Kd [4] of the same molecule?
A: Its Kd is 16 µM.
